Patent publication US20050227306

Key:
[1] = target: His6-tetraCys-X-MBP protease substrate 25-F [MBP: P0AEX9]
[2] = target: His6-tetraCys-X-MBP protease substrate 21-F [MBP: P0AEX9]
[3] = target: His6-tetraCys-X-MBP protease substrate 24-F [MBP: P0AEX9]
[4] = target: His6-tetraCys-X-MBP protease substrate 23-F [MBP: P0AEX9]
[5] = target: At3g03410 fusion protein expressed from pVP14
[6] = target: At3g16990 fusion protein expressed from pVP15
[7] = target: His6-tetraCys-X-MBP protease substrate 26-F [MBP: P0AEX9]
[8] = target: His6-tetraCys-X-MBP protease substrate 22-F [MBP: P0AEX9]

B1: tobacco etch virus (TEV) protease (protein)
chain: GESLFKGPRDYNPISSTICHLTNESDGHTTSLYGIGFGPFIITNKHLFRRNNGTLLVQSLHGVFKVKNTTTLQQHLIDGRDMIIIRMPKDFPPFPQKLKFREPQREERICLVTTNFQTKSMSSMVSDTSCTFPSSDGIFWKHWIQTKDGQCGSPLVSTRDGFIVGIHSASNFTNTNNYFTSVPKNFMELLTNQEAQQWVSGWRLNADSVLWGGHKVFMSKPEEPFQPVKEATQLMNELVYSQ
relative rate of reaction (initial proteolysis rate by fluorescence anisotropy, normalised to the cognate substrate) (relative rate) [1]: 0 | fluorescence anisotropy and SDS-PAGE [2]: underwent a minor amount of proteolysis | relative rate of reaction (initial proteolysis rate by fluorescence anisotropy, normalised to the cognate substrate) (relative rate) [2]: 0.01 | relative rate of reaction (initial proteolysis rate by fluorescence anisotropy, normalised to the cognate substrate) (relative rate) [3]: -0.01 | relative rate of reaction (initial proteolysis rate by fluorescence anisotropy, normalised to the cognate substrate) (relative rate) [4]: -0.02 | fluorescence anisotropy over time [5]: time-dependent decreases in anisotropy | fluorescence anisotropy over time [6]: a time-dependent decrease in anisotropy was observed | relative rate of reaction (initial proteolysis rate by fluorescence anisotropy, normalised to the cognate substrate) (relative rate) [7]: 1 | specific reaction rate (slope of initial proteolysis rate versus protease concentration) [7]: TEV protease; 17.3±0.7 | relative rate of reaction (initial proteolysis rate by fluorescence anisotropy, normalised to the cognate substrate) (relative rate) [8]: 0
